US6034212
Ends that are not written are not given here. * marks the point of attachment. Biotin = O=C1N[C@H]2[C@H](CS[C@H]2CCCCC(=O)*)N1

How the values were obtained:
[1] = target: GST-SH3-Yes fusion protein (Gallus gallus (Chicken)) (UniProt P09324); assay: competition of labeled GST-YES-SH3 binding to blotted TrpE-YAP65
[2] = target: GST-WW-YAP fusion protein (WW domain of human YAP in pGEX-2TK) (human); assay: competition of a fixed concentration of labelled GST-WW-YAP on blotted GST-…, densitometry (data not shown)

| concentration required to partially compete for binding [1] [µM] | IC50 [2] [nM] | Binder |
| --- | --- | --- |
| 200 | – | ISQSAPVKQPPPLAPQSPQGGV [PLAP peptide] |
| – | 750 | Biotin-GTPPPPYTVG [unlabelled decapeptide biotin-… containing the PY motif] |
